Laboratory results published in publication PMC3556126, “The site-specific integration reaction of Listeria phage A118 integrase, a serine recombinase”.

Tests used:
A118 integrase (HisInt) [1] = molecular target: T1, A118 integrase (HisInt) (Listeria monocytogenes phage A118, UniProt Q8Y4U8 1-452); assay: EMSA; conditions: 20 mM HEPES pH 7.5, 100 mM NaCl, 0.1 mg/ml BSA, 5 mM spermidine, 5 mM DTT, 5% glycerol, 50 ug/ml salmon sperm DNA, about 0.1 pmol probe in 10 ul, 30 C 30 min …
T1 sequence: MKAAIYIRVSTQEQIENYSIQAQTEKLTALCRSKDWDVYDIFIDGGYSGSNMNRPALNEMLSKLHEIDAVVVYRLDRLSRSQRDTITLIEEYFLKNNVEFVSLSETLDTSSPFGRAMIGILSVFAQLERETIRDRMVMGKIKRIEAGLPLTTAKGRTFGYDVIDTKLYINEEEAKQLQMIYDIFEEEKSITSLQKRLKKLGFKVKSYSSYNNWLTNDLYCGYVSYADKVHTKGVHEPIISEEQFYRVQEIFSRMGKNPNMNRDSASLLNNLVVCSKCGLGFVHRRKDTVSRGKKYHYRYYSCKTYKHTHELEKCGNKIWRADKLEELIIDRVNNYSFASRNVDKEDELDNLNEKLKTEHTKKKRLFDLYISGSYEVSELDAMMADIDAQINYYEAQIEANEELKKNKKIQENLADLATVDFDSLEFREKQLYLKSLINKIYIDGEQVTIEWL

[2] = molecular target: T2, A118 integrase C-terminal domain (HisInt158-452) (Listeria monocytogenes phage A118) (UniProt Q8Y4U8); assay: EMSA; conditions: mainly complex I, 20 mM HEPES pH 7.5, 100 mM NaCl, 0.1 mg/ml BSA, 5 mM spermidine, 5 mM DTT, 5% glycerol, 50 ug/ml salmon sperm DNA, about 0.1 pmol probe in 10 ul, 30 C 30 min …
T2 sequence: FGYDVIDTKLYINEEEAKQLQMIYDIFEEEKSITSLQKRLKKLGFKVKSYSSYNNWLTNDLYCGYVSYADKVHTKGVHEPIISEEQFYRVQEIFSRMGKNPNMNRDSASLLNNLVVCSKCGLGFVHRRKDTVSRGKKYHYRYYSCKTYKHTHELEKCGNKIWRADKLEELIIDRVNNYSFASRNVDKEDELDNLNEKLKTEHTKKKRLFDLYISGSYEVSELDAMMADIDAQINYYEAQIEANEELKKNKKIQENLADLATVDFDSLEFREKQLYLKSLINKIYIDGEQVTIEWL

[3] = molecular target: Listeria phage A118 integrase, N-terminally histidine tagged, full-length (Listeria phage A118); assay: SEC; FPLC Superdex-200 10/300 GL; 20 mM HEPES pH 7.5, 1 M NaCl, 1 mM DTT, 10% glycerol; 0.4 ml/minute; 23°C
[4] = molecular target: T3, A118 integrase C-terminal domain (HisInt158-452) (Listeria monocytogenes phage A118, UniProt Q8Y4U8 158-452); assay: EMSA; 810 nM; 20 mM HEPES pH 7.5, 100 mM NaCl, 0.1 mg/ml BSA, 5 mM spermidine, 5 mM DTT, 5% glycerol, 50 ug/ml salmon sperm DNA, about 0.1 pmol probe in 10 ul, 30 C 30 min; 6% PAGE in 0.5x TBE at room temperature; conditions: protein: recombinant; tags: N-terminal His (pET15b); label: 32P; blunt
T3 sequence: T2 sequence

A118 integrase (HisInt) [5] = molecular target: T1, A118 integrase (HisInt); assay: as above; conditions: protein: recombinant; tags: N-terminal His (pET15b); chain copies: 2; label: 32P; blunt
A118 integrase (HisInt) [6] = molecular target: T1, A118 integrase (HisInt); assay: protease protection; twofold molar excess of DNA; chymotrypsin or proteinase K; 20 mM HEPES pH 7.5, 100 mM NaCl, 0.1 mg/ml BSA, 5 mM spermidine, 5 mM DTT, 5% glycerol, 50 ug/ml salmon sperm DNA, about 0.1 pmol probe in 10 ul, 30 C 30 min; 6% PAGE in 0.5x TBE at room temperature; conditions: protein: recombinant; tags: N-terminal His (pET15b); chain copies: 2; blunt
A118 integrase (HisInt) [7] = molecular target: T1, A118 integrase (HisInt); assay: EMSA; predominantly dimer; 20 mM HEPES pH 7.5, 100 mM NaCl, 0.1 mg/ml BSA, 5 mM spermidine, 5 mM DTT, 5% glycerol, 50 ug/ml salmon sperm DNA, about 0.1 pmol probe in 10 ul, 30 C 30 min; 6% PAGE in 0.5x TBE at room temperature; conditions: protein: recombinant; tags: N-terminal His (pET15b); chain copies: 2; label: 32P; blunt
[8] = dimer complex, apparent, panel assignment by order

attR 100 bp
Kd (A118 integrase (HisInt) [1]; [8]): 60 nM

attB 100 bp
Kd (A118 integrase (HisInt) [1]): 72 nM | Kd ([2]; binds much less than attP): > 800 nM

attP 100 bp
Kd (A118 integrase (HisInt) [1]): 48 nM | Kd [2]: 145 nM

attL 100 bp
Kd (A118 integrase (HisInt) [1]; [8]): 75 nM

Listeria phage A118 integrase, N-terminally histidine tagged, full-length (enzyme)
stoichiometry N [3]: 2

B1: attP -oP' half-site (dsDNA)
DNA 1: GCCCGACCAAGTTCGCGCAGGAGGGGAAGAAGAAGAAACGAGAAACTAAA
DNA 2: TTTAGTTTCTCGTTTCTTCTTCTTCCCCTCCTGCGCGAACTTGGTCGGGC
binding result [4]: no binding | binding result (A118 integrase (HisInt) [5]): no binding

B2: attB -oB' half-site (dsDNA)
DNA 1: CCGCGCATAGGAGGAACCCTGGGACGCAAAGAGGGAACTAAACA
DNA 2: TGTTTAGTTCCCTCTTTGCGTCCCAGGGTTCCTCCTATGCGCGG
binding result (A118 integrase (HisInt) [5]): no binding

B3: attP 50 bp (dsDNA)
DNA 1: TTTAGTTCCTCGTTTTCTCTCGTTGGAAGAAGAAGAAACGAGAAACTAAA
DNA 2: TTTAGTTTCTCGTTTCTTCTTCTTCCAACGAGAGAAAACGAGGAACTAAA
binding result (A118 integrase (HisInt) [6]): binds

B4: attP Po- half-site (dsDNA)
DNA 1: TTTAGTTCCTCGTTTTCTCTCGTTGGACTCCTCCTCGCTCGTCCCAGCCC
DNA 2: GGGCTGGGACGAGCGAGGAGGAGTCCAACGAGAGAAAACGAGGAACTAAA
Kd (A118 integrase (HisInt) [7]): ~1000 nM
